Data: patent publication US20190225692A1 (JUNO THERAPEUTICS, published 2019)
Numbering of substitutions follows the chain as printed.

B1: TCR 53 (codon optimized, cysteine modified version) (TCR, V domains shown)
V domain 1: AQSVAQPEDQVNVAEGNPLTVKCTYSVSGNPYLFWYVQYPNRGLQFLLKYITGDNLVKGSYGFEAEFNKSQTSFHLKKPSALVSDSALYFCAVRDFGSGTYKYIFG
V domain 2: GAGVSQSPRYKVTKRGQDVALRCDPISGHVSLYWYRQALGQGPEFLTYFNYEAQQDKSGLPNDRFSAERPEGSISTLTIQRTEQRDSAMYRCASSGSGTSGYNEQFFGPGTRLTVLE
B2: TCR 51 (codon optimized, cysteine modified version) (TCR, V domains shown)
V domain 1: QKEVEQNSGPLSVPEGAIASLNCTYSDRGSQSFFWYRQYSGKSPELIMSIYSNGDKEDGRFTAQLNKASQYVSLLIRDSQPSDSATYLCAVNMRGGGSNYKLTFGKGTLLTVNP
V domain 2: EPEVTQTPSHQVTQMGQEVILRCVPISNHLYFYWYRQILGQKVEFLVSFYNNEISEKSEIFDDQFSVERPDGSNFTLKIRSTKLEDSAMYFCAIASRVSYEQYFGPGTRLTVTE
B3: TCR 55 (codon optimized, cysteine modified version) (TCR)
TCR alpha: GEDVEQSLFLSVREGDSSVINCTYTDSSSTYLYWYKQEPGAGLQLLTYIFSNMDMKQDQRLTVLLNKKDKHLSLRIADTQTGDSAIYFCAVPSGATNKLIFGTGTLLAVQPNIQNPDPAVYQLRDSKSSDKSVCLFTDFDSQTNVSQSKDSDVYITDKCVLDMRSMDFKSNSAVAWSNKSDFACANAFNNSIIPEDTFFPSPESSCDVKLVEKSFETDTNLNFQNLSVIGFRILLLKVAGFNLLMTLRLWSS
TCR beta: EPEVTQTPSHQVTQMGQEVILRCVPISNHLYFYWYRQILGQKVEFLVSFYNNEISEKSEIFDDQFSVERPDGSNFTLKIRSTKLEDSAMYFCASTTRSSYEQYFGPGTRLTVTEDLKNVFPPEVAVFEPSEAEISHTQKATLVCLATGFYPDHVELSWWVNGKEVHSGVCTDPQPLKEQPALNDSRYCLSSRLRVSATFWQNPRNHFRCQVQFYGLSENDEWTQDRAKPVTQIVSAEAWGRADCGFTSESYQQGVLSATILYEILLGKATLYAVLVSALVLMAMVKRKDSRG
B4: TCR 50 (codon optimized, cysteine modified version) (TCR, V domains shown)
V domain 1: GEDVEQSLFLSVREGDSSVINCTYTDSSSTYLYWYKQEPGAGLQLLTYIFSNMDMKQDQRLTVLLNKKDKHLSLRIADTQTGDSAIYFCAESPPGTYKYIFGTGTRLKVLA
V domain 2: DSGVTQTPKHLITATGQRVTLRCSPRSGDLSVYWYQQSLDQGLQFLIHYYNGEERAKGNILERFSAQQFPDLHSELNLSSLELGDSALYFCASSATRDAYGYTFGSGTRLTVVE
B5: modified version of TCR 13 (codon optimized, cysteine modified) (TCR, V domains shown)
V domain 1: AQSVTQLDSHVSVSEGTPVLLRCNYSSSYSPSLFWYVQHPNKGLQLLLKYTSAATLVKGINGFEAEFKKSETSFHLTKPSAHMSDAAEYFCVVRGGKLIFGQGTELSVKP
V domain 2: GAGVSQSPRYKVAKRGQDVALRCDPISGHVSLFWYQQALGQGPEFLTYFQNEAQLDKSGLPSDRFFAERPEGSVSTLKIQRTQQEDSAVYLCASSPTGTERELFFGEGSRLTVLE
B6: TCR 20 (codon optimized, cysteine modified version) (TCR, V domains shown)
V domain 1: AQKVTQAQTEISVVEKEDVTLDCVYETRDTTYYLFWYKQPPSGELVFLIRRNSFDEQNEISGRYSWNFQKSTSSFNFTITASQVVDSAVYFCALWTGANNLFFGTGTRLTVIP
V domain 2: GAVVSQHPSRVICKSGTSVKIECRSLDFQATTMFWYRQFPKQSLMLMATSNEGSKATYEQGVEKDKFLINHASLTLSTLTVTSAHPEDSSFYICSASSLARRSYEQYFGPGTRLTVTE
B7: TCR 28 (codon optimized, cysteine modified version) (TCR, V domains shown)
V domain 1: RKEVEQDPGPFNVPEGATVAFNCTYSNSASQSFFWYRQDCRKEPKLLMSVYSSGNEDGRFTAQLNRASQYISLLIRDSKLSDSATYLCVVRGGGTSYGKLTFGQGTILTVHP
V domain 2: DVKVTQSSRYLVKRTGEKVFLECVQDMDHENMFWYRQDPGLGLRLIYFSYDVKMKEKGDIPEGYSVSREKKERFSLILESASTNQTSMYLCASSLWGRSSGNTIYFGEGSWLTVVE
B8: TCR 29 (codon optimized, cysteine modified version) (TCR, V domains shown)
V domain 1: AQKITQTQPGMFVQEKEAVTLDCTYDTSDQSYGLFWYKQPSSGEMIFLIYQGSYDEQNATEGRYSLNFQKARKSANLVISASQLGDSAMYFCAMRLNTGTASKLTFGTGTRLQVTL
V domain 2: DGGITQSPKYLFRKEGQNVTLSCEQNLNHDAMYWYRQDPGQGLRLIYYSQIVNDFQKGDIAEGYSVSREKKESFPLTVTSAQKNPTAFYLCASSPWGRATNEQFFGPGTRLTVLE
B9: TCR 15 (codon optimized, cysteine modified version) (TCR, V domains shown)
V domain 1: AQKITQTQPGMFVQEKEAVTLDCTYDTSDQSYGLFWYKQPSSGEMIFLIYQGSYDEQNATEGRYSLNFQKARKSANLVISASQLGDSAMYFCAMKPGGYNKLIFGAGTRLAVHP
V domain 2: DAGVIQSPRHEVTEMGQEVTLRCKPISGHNSLFWYRQTMMRGLELLIYFNNNVPIDDSGMPEDRFSAKMPNASFSTLKIQPSEPRDSAVYFCASSLVGRSRTEQYFGPGTRLTVTE
B10: TCR 26 (codon optimized, cysteine modified version) (TCR, V domains shown)
V domain 1: B9 V domain 1 with K95R, P96D, G97A, G98R, Y99N, K101D, L102M, I103R, A111T, H113K
V domain 2: NAGVTQTPKFRVLKTGQSMTLLCAQDMNHEYMYWYRQDPGMGLRLIHYSVGEGTTAKGEVPDGYNVSRLKKQNFLLGLESAAPSQTSVYFCASSYYASGRNYEQYFGPGTRLTVTE
B11: TCR 30 (codon optimized, cysteine modified version) (TCR, V domains shown)
V domain 1: DAKTTQPPSMDCAEGRAANLPCNHSTISGNEYVYWYRQIHSQGPQYIIHGLKNNETNEMASLIITEDRKSSTLILPHATLRDTAVYYCIVRGTSVLQGNEKLTFGTGTRLTIIP
V domain 2: EPEVTQTPSHQVTQMGQEVILRCVPISNHLYFYWYRQILGQKVEFLVSFYNNEISEKSEIFDDQFSVERPDGSNFTLKIRSTKLEDSAMYFCASSRQPSSGNTIYFGEGSWLTVVE
B12: TCR 16 (codon optimized, cysteine modified version) (TCR, V domains shown)
V domain 1: KQEVTQIPAALSVPEGENLVLNCSFTDSAIYNLQWFRQDPGKGLTSLLLIQSSQREQTSGRLNASLDKSSGRSTLYIAASQPGDSATYLCAVRPANNNDMRFGAGTRLTVKP
V domain 2: DVKVTQSSRYLVKRTGEKVFLECVQDMDHENMFWYRQDPGLGLRLIYFSYDVKMKEKGDIPEGYSVSREKKERFSLILESASTNQTSMYLCASSLWGRSNQPQHFGDGTRLSILE
B13: TCR 19 (codon optimized, cysteine modified version) (TCR, V domains shown)
V domain 1: B8 V domain 1 with L96E
V domain 2: B12 V domain 2 with L95S, R98Q, N100T, Q101G, P102E, H104Y, D107P, S112T, I113V, L114T
B14: TCR 25 (codon optimized, cysteine modified version) (TCR, V domains shown)
V domain 1: AQKITQTQPGMFVQEKEAVTLDCTYDTSDQSYGLFWYKQPSSGEMIFLIYQGSYDEQNATEGRYSLNFQKARKSANLVISASQLGDSAMYFCAMREGSLTGGGNKLTFGTGTQLKVEL
V domain 2: B12 V domain 2 with R98Q

Each binder was assayed against T1, HLA-A2/E7 (11-19) tetramer (human; HPV 16) (assay: tetramer flow cytometry; transfected 1:1 CD4+ and CD4+/CD8+ Jurkat-derived cells;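 further: cells transiently transfected with TCR plasmids, stained 48 h later with HLA-A*02:01 peptide-MHC tetramer plus anti-CD8 antibody, read by flow cytometry to assess CD8-independent tetramer binding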).
T1 construct: also called E7(11-19) peptide-MHC tetramer; E7 (11-19)-loaded tetramer
Experimental: (§1) For transfection, the CD4+ and CD4+/CD8+ cell mixtures were transiently transfected with TCR-encoding plasmids and 48 hours after transfection, cells were assessed by flow cytometry for (1) binding of the target peptide in the context of an MHC molecule (HLA:A02:01) by staining with an E6(29-38) peptide- or an E7(11-19) peptide-MHC tetramer reagent, and/or (2) CD8+ independent binding of the target by co-staining the tetramer-labeled cells with an anti-CD8 antibody.

Compared with B1, B2 is higher in “% cells in E7 tet+/CD8+ quadrant” value: 3.35% for the first, 5.7% for the second.

Going from B3 to B4, the “% cells in E7 tet+/CD8+ quadrant” value rises from 1.45% to 3.28%.

Compared with B1, B2 is higher in “% cells in E7 tet+/CD8- quadrant” value: 0.43% for the first, 2.06% for the second.

First: B3
Second: B4
The “% cells in E7 tet+/CD8- quadrant” value of the first is higher: 0.28% for the first, 0.25% for the second.

Going from B1 to B2, the “% cells in E7 tet-/CD8+ quadrant” value falls from 28.7% to 27.5%.

First: B3
Second: B4
The “% cells in E7 tet-/CD8+ quadrant” value of the first is higher: 50.4% for the first, 30.7% for the second.

First: B1
Second: B2
The “% cells in E7 tet-/CD8- quadrant” value of the first is higher: 67.5% for the first, 64.7% for the second.

Going from B3 to B4, the “% cells in E7 tet-/CD8- quadrant” value rises from 47.9% to 65.8%.

These binders were tested against T2, HLA-A2/E6 (29-38) tetramer (human; HPV 16) (assay: tetramer flow cytometry; transfected Jurkat-derived cells, CD8+ population).
T2 construct: also called E6(29-38) peptide-MHC tetramer; E6(29-38)-loaded tetramer
Experimental: as §1

For B5, the “% cells in E6 tet+/CD8+ quadrant” value was 38.6%.

In the case of B5, the “% cells in E6 tet+/CD8- quadrant” value is reported as 0.064%.

B5 was tested, and the “% cells in E6 tet-/CD8+ quadrant” value was 59.5%.

B5 was tested, and the “% cells in E6 tet-/CD8- quadrant” value was 1.82%.

These binders were tested against T2, HLA-A2/E6 (29-38) tetramer (assay: tetramer flow cytometry; transfected 1:1 CD4+ and CD4+/CD8+ Jurkat-derived cells;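 further: cell mixtures transiently transfected with TCR-encoding plasmids, analysed by flow cytometry 48 h later after HLA-A*02:01 E6 tetramer staining combined with anti-CD8 antibody co-staining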).
Experimental: as §1

Going from B6 to B7, the “% cells in E6 tet+/CD8+ quadrant” value falls from 38.2% to 13.1%.

First: B8
Second: B9
The “% cells in E6 tet+/CD8+ quadrant” value of the first is higher: 35.6% for the first, 21.4% for the second.

Going from B10 to B11, the “% cells in E6 tet+/CD8+ quadrant” value falls from 42.3% to 31%.

Compared with B12, B13 is lower in “% cells in E6 tet+/CD8+ quadrant” value: 35.6% for the first, 35.5% for the second.

In the case of B14, the “% cells in E6 tet+/CD8+ quadrant” value is reported as 34%.

First: B6
Second: B7
The “% cells in E6 tet+/CD8- quadrant” value of the first is higher: 34.1% for the first, 0.15% for the second.

First: B8
Second: B9
The “% cells in E6 tet+/CD8- quadrant” value of the first is higher: 44.5% for the first, 40.2% for the second.

Compared with B10, B11 is lower in “% cells in E6 tet+/CD8- quadrant” value: 47.4% for the first, 0.74% for the second.

Compared with B12, B13 is lower in “% cells in E6 tet+/CD8- quadrant” value: 28.2% for the first, 20.8% for the second.

For B14, the “% cells in E6 tet+/CD8- quadrant” value was 14.7%.

Compared with B6, B7 is higher in “% cells in E6 tet-/CD8+ quadrant” value: 5.17% for the first, 31.4% for the second.

Going from B8 to B9, the “% cells in E6 tet-/CD8+ quadrant” value rises from 2% to 13.6%.

First: B10
Second: B11
The “% cells in E6 tet-/CD8+ quadrant” value of the first is lower: 1.58% for the first, 13.9% for the second.

First: B12
Second: B13
The “% cells in E6 tet-/CD8+ quadrant” value of the first is higher: 9.51% for the first, 7.71% for the second.

B14 was tested, and the “% cells in E6 tet-/CD8+ quadrant” value was 10.2%.

Compared with B6, B7 is higher in “% cells in E6 tet-/CD8- quadrant” value: 22.6% for the first, 55.4% for the second.

First: B8
Second: B9
The “% cells in E6 tet-/CD8- quadrant” value of the first is lower: 17.9% for the first, 24.8% for the second.

Going from B10 to B11, the “% cells in E6 tet-/CD8- quadrant” value rises from 8.73% to 54.3%.

Compared with B12, B13 is higher in “% cells in E6 tet-/CD8- quadrant” value: 26.7% for the first, 36% for the second.

For B14, the “% cells in E6 tet-/CD8- quadrant” value was 41.1%.
